Residue numbers refer to the chain shown, from its start. Names and notes keep the numbering of the source.
Legend:
CD28 [1] = biological target: T1, CD28 (human, UniProt P10747 19-220); assay: flow cytometry, 11 nM Fc fusion on Jurkat cells
CTLA-4 [2] = biological target: T2, CTLA-4 (human, UniProt P16410 36-223); assay: flow cytometry, 11 nM Fc fusion on CHO/CTLA4 transfectants
T2 construct: CHO cells transduced to stably express CTLA-4; also called huCTLA; CHO/CTLA-4
T2 sequence: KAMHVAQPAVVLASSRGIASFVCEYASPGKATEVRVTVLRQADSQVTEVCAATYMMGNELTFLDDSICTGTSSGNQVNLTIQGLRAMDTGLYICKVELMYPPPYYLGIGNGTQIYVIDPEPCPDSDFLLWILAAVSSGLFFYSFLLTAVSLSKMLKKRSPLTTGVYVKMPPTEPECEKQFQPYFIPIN

CD28 [3] = biological target: T1, CD28; assay: flow cytometry, 25 nM Fc fusion on Jurkat cells
Experimental: (§1) Binding of the CD86 domain variants described above were assayed for binding to CD28 using Jurkat cells or to CTLA-4 using Chinese Hamster Ovary (CHO) cells that were transduced to stably express CTLA-4 (CHO/CTLA-4). For staining by flow cytometry, approximately 100,000 ligand-expressing cells were incubated with various concentrations of each candidate CD86 variant Fc fusion protein. […] To assess binding, cells were stained with an anti-human Fc secondary antibody (Jackson ImmunoResearch, USA), and samples were analyzed on an LSRII (BD Biosciences, Inc., USA) flow cytometer.
(§2) In the Table, the exemplary amino acid substitutions and insertions in the IgV domain are designated by amino acid position number corresponding to amino acid positions in the respective reference unmodified mature CD86 extracellular domain (ECD) sequence set forth in SEQ ID NO:29. The amino acid position is indicated in the middle, with the corresponding unmodified (e.g. wild-type) amino acid listed before the number and the identified variant amino acid substitution listed after the number. Column 2 sets forth the SEQ ID NO identifier for each variant IgV domain contained in the variant IgV-Fc fusion molecule.

CD28 [4] = biological target: T1, CD28; assay: cell-based or functional assay
CTLA-4 [5] = biological target: T2, CTLA-4; assay: flow cytometry, 25 nM Fc fusion on CHO/CTLA4 transfectants
Experimental: as §1, §2

CD28 [6] = biological target: T1, CD28; assay: flow cytometry, Jurkat cells expressing CD28, anti-Fc antibody-PE
Experimental: (§3) To assess binding activity, the exemplary formatted stack constructs were incubated with Jurkat cells expressing CD28, the cognate binding partner of CD86, and with K562 cells transduced to express PDL1, the cognate binding partner of PD-1. The cells (50,000 cells/well) were incubated on ice for 30 min with the formatted stack constructs set forth in Table E7 at various concentrations (starting concentration 100 nM, 8 serial 1:4 dilutions titrated down). Cells were then washed with FACS buffer and resuspended with 50 μL anti-Fc antibody-PE for 30 min. Binding was assessed by flow cytometry and Mean Fluorescence Intensity (MFI) was determined.

PD-L1 = biological target: T3, PD-L1 (human, UniProt Q9NZQ7 19-290); assay: flow cytometry, K562 cells transduced to express PDL1, anti-Fc antibody-PE
T3 construct: also called huPD-L1
Experimental: as §3

T3 sequence (Q9NZQ7 19-290): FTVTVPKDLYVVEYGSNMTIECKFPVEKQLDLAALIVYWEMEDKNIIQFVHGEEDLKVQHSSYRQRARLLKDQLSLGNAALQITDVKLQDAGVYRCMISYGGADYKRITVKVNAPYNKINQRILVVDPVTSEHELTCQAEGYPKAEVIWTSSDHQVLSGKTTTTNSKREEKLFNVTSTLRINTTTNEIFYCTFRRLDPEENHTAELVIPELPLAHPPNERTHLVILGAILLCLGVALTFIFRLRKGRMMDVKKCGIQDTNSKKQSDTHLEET
T1 sequence (P10747 19-220): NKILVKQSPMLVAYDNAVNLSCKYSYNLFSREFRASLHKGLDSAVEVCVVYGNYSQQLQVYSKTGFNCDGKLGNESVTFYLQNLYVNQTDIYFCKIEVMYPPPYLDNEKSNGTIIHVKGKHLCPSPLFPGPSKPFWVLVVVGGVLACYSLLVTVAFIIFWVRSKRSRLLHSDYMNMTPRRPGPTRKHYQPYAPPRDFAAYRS

Molecule: variant CD86 ECD-Fc Q25L/H90L/P185S/P224L (ECD SEQ ID NO: 116) (Fc fusion)
- MFI (CD28 [1]): 11.9
- Fold Increase over WT CD86 ECD (CTLA-4 [2]): 0.5 fold
- MFI (CTLA-4 [2]): 9360

B1: variant CD86 IgV-Fc M60K/H90L (IgV SEQ ID NO: 128) (Fc fusion)
chain: APLKIQAYFNETADLPCQFANSQNQSLSELVVFWQDQENLVLNEVYLGKEKFDSVHSKYKGRTSFDSDSWTLRLHNLQIKDKGLYQCIILHKKPTGMIRIHQMNSELSVLAGSGGGGSEPKSSDKTHTCPPCPAPEAEGAPSVFLFPPKPKDTLMISRTPEVTCVVVDVSHEDPEVKFNWYVDGVEVHNAKTKPREEQYNSTYRVVSVLTVLHQDWLNGKEYKCKVSNKALPAPIEKTISKAKGQPREPQVYTLPPSRDELTKNQVSLTCLVKGFYPSDIAVEWESNGQPENNYKTTPPVLDSDGSFFLYSKLTVDKSRWQQGNVFSCSVMHEALHNHYTQKSLSLSPG
- MFI (CD28 [3]): 20

B2: variant CD86 IgV-Fc Q25L/Q86R/H90L (IgV SEQ ID NO: 126) (Fc fusion)
chain: B1 chain with Q25L, K60M, Q86R
- Fold Increase over WT CD86 ECD, Jurkat/IL2 Luciferase Assay (10 nM OKT3 + 50 nM CD86 IgV-Fc) (CD28 [4]): 6.1 fold
- Relative luminescence units (RLU), Jurkat/IL2 Luciferase Assay (10 nM OKT3 + 50 nM CD86 IgV-Fc) (CD28 [4]): 800 RLU
- Fold Increase over WT CD86 ECD (CD28 [3]): 128 fold
- MFI (CD28 [3]): 1570
- Fold Increase over WT CD86 ECD (CTLA-4 [5]): 1.3 fold
- MFI (CTLA-4 [5]): 4940

B3: formatted PD-1-CD86 stack, FIG. 14C format (heterodimer SEQ ID NOs 328 + 330) (Fc fusion)
chain 1: DSPDRPWNPPTFSPALLVVTEGDNATFTCSFSNTSESFVLNWYRMSPSNQTDKLAAFPEDRNQPGQDRRFRVTQLPNGRDYHMSVDRARRNDSGTYLCGAITLAPKVQIDESLRVELRVTERGSGGGGSEPKSSDKTHTCPPCPAPEAEGAPSVFLFPPKPKDTLMISRTPEVTCVVVDVSHEDPEVKFNWYVDGVEVHNAKTKPREEQYNSTYRVVSVLTVLHQDWLNGKEYKCKVSNKALPAPIEKTISKAKGQPREPQVYTLPPCREEMTKNQVSLWCLVKGFYPSDIAVEWESNGQPENNYKTTPPVLDSDGSFFLYSKLTVDKSRWQQGNVFSCSVMHEALHNHYTQKSLSLSPG
chain 2: EPKSSDKTHTCPPCPAPEAEGAPSVFLFPPKPKDTLMISRTPEVTCVVVDVSHEDPEVKFNWYVDGVEVHNAKTKPREEQYNSTYRVVSVLTVLHQDWLNGKEYKCKVSNKALPAPIEKTISKAKGQPREPQVCTLPPSREEMTKNQVSLSCAVKGFYPSDIAVEWESNGQPENNYKTTPPVLDSDGSFFLVSKLTVDKSRWQQGNVFSCSVMHEALHNHYTQKSLSLSPGGGGGSGGGGSGGGGSGGGGSAPLKIQAYFNETADLPCQFANSQNLSLSELVVFWQDQENLVLNEVYLGKEKFDSVHSKYMGRTSFDSDSWTLRLHNLQIKDKGLYRCIILHKKPTGMIRIHQMSSELSVLA
notes: Knobs-into-hole heterodimer
- binding result (CD28 [6]): binds
- binding result (PD-L1): binds

B4: formatted PD-1-CD86 stack, FIG. 14A format, SEQ ID NO: 326 homodimer (Fc fusion)
chain: DSPDRPWNPPTFSPALLVVTEGDNATFTCSFSNTSESFVLNWYRMSPSNQTDKLAAFPEDRNQPGQDRRFRVTQLPNGRDYHMSVDRARRNDSGTYLCGAITLAPKVQIDESLRVELRVTERGSGGGGSEPKSSDKTHTCPPCPAPEAEGAPSVFLFPPKPKDTLMISRTPEVTCVVVDVSHEDPEVKFNWYVDGVEVHNAKTKPREEQYNSTYRVVSVLTVLHQDWLNGKEYKCKVSNKALPAPIEKTISKAKGQPREPQVYTLPPSRDELTKNQVSLTCLVKGFYPSDIAVEWESNGQPENNYKTTPPVLDSDGSFFLYSKLTVDKSRWQQGNVFSCSVMHEALHNHYTQKSLSLSPGGGGGSGGGGSGGGGSGGGGSAPLKIQAYFNETADLPCQFANSQNLSLSELVVFWQDQENLVLNEVYLGKEKFDSVHSKYMGRTSFDSDSWTLRLHNLQIKDKGLYRCIILHKKPTGMIRIHQMSSELSVLANFSQPEIVPISNITENVYINLTCSSIHGYPEPKKMSVLLRTKNSTIEYDGVMQKSQDNVTELYDVSISLSVSFPDVTSNMTIFCILETDKTRLLSSPFSIELEDPQPPPDHIP
notes: also called variant PD1 ECD - Fc - variant CD86 ECD
- binding result (CD28 [6]): binds
- binding result (PD-L1): binds

B5: formatted PD-1-CD86 stack, FIG. 14A format, SEQ ID NO: 327 homodimer (Fc fusion)
chain: DSPDRPWNPPTFSPALLVVTEGDNATFTCSFSNTSESFVLNWYRMSPSNQTDKLAAFPEDRNQPGQDRRFRVTQLPNGRDYHMSVDRARRNDSGTYLCGAITLAPKVQIDESLRVELRVTERGSGGGGSEPKSSDKTHTCPPCPAPEAEGAPSVFLFPPKPKDTLMISRTPEVTCVVVDVSHEDPEVKFNWYVDGVEVHNAKTKPREEQYNSTYRVVSVLTVLHQDWLNGKEYKCKVSNKALPAPIEKTISKAKGQPREPQVYTLPPSRDELTKNQVSLTCLVKGFYPSDIAVEWESNGQPENNYKTTPPVLDSDGSFFLYSKLTVDKSRWQQGNVFSCSVMHEALHNHYTQKSLSLSPGGGGGSGGGGSGGGGSGGGGSAPLKIQAYFNETADLPCQFANSQNLSLSELVVFWQDQENLVLNEVYLGKEKFDSVHSKYMGRTSFDSDSWTLRLHNLQIKDKGLYRCIILHKKPTGMIRIHQMSSELSVLA
notes: also called variant PD1 ECD - Fc - variant CD86 IgV
- binding result (CD28 [6]): binds
- binding result (PD-L1): binds

B6: formatted PD-1-CD86 stack, FIG. 14D format (heterodimer SEQ ID NOs 328 + 331) (Fc fusion)
chain 1: B3 chain 1
chain 2: B5 chain with Y263C, D270E, L272M, T280S, L282A, Y321V
notes: Knobs-into-hole heterodimer
- binding result (CD28 [6]): binds
- binding result (PD-L1): binds

— patent US20260193313A1 (ALPINE IMMUNE SCIENCES, published 2026)
